Laboratory results: US5973118

Tests used:
[1] = target: recombinant plasminogen activator rPA (recombinant tPA derivative comprising the kringle 2 and protease domains) (Homo sapiens (Human)) (UniProt P00750); test: affinity column: inhibitor coupled to CNBr-Sepharose, loaded with 2 MU r-PA/ml gel, eluted rPA by S2288 amidolytic activity, run 2
[2] = target: recombinant plasminogen activator rPA (recombinant tPA derivative comprising the kringle 2 and protease domains) (Homo sapiens (Human)) (UniProt P00750); test: affinity column: inhibitor coupled to CNBr-Sepharose, loaded with 2 MU r-PA/ml gel, eluted rPA by S2288 amidolytic activity, run 3
[3] = target: recombinant plasminogen activator rPA (recombinant tPA derivative comprising the kringle 2 and protease domains) (Homo sapiens (Human)) (UniProt P00750); test: affinity column: inhibitor coupled to CNBr-Sepharose, loaded with 2 MU r-PA/ml gel, eluted rPA by S2288 amidolytic activity, run 5
[4] = target: trypsin
[5] = target: recombinant plasminogen activator rPA (recombinant tPA derivative comprising the kringle 2 and protease domains) (Homo sapiens (Human)) (UniProt P00750); test: affinity column: inhibitor coupled to CNBr-Sepharose, loaded with 2 MU r-PA/ml gel, eluted rPA by S2288 amidolytic activity, run 4
[6] = target: recombinant plasminogen activator rPA (recombinant tPA derivative comprising the kringle 2 and protease domains) (Homo sapiens (Human)) (UniProt P00750); test: affinity column: inhibitor coupled to CNBr-Sepharose, loaded with 2 MU r-PA/ml gel, eluted rPA by S2288 amidolytic activity, run 1
[7] = target: recombinant plasminogen activator rPA (recombinant tPA derivative comprising the kringle 2 and protease domains) (Homo sapiens (Human)) (UniProt P00750); test: affinity column: inhibitor coupled to CNBr-Sepharose, eluted rPA; reference seed-ETI-Sepharose

Binding capacity MU/ml [1] [MU/ml] | Binding capacity MU/ml [2] [MU/ml] | Binding capacity MU/ml [3] [MU/ml] | specific activity (U/mg), inhibition of trypsin with BAPA as substrate [4] [U/mg] | Binding capacity MU/ml [5] [MU/ml] | Binding capacity MU/ml [6] [MU/ml] | fold higher binding capacity than seed-ETI-Sepharose [7] [fold] | Substance
0.95 | 1.08 | 0.98 | 0.88 | 1.01 | 1.04 |  | ETI isolated from the seeds of Erythrina caffra [ETI (seeds)] (from UniProt P09943)
1.35 | 1.53 | 1.49 | 1.5 | 1.48 | 1.28 | 1.5 | SerETI (recombinant ETI polypeptide in which the N-terminal Val is replaced by Ser)
 |  |  | 1.07 |  |  |  | recombinant, non-modified ETI (recETI) (from UniProt P09943)
